# According to paper PMC7714071, “Interaction of amyloid beta with humanin and acetylcholinesterase is modulated by ATP” (FEBS Open Bio, 2020):
# Columns and labels:
# [1] = test system: Aβ42; conditions: HN and AChE compared; cited from earlier work
# Source text: Humanin has been previously reported to bind amino acid residues 17–28 of Aβ (Fig. 1). AChE is also known to bind Aβ (1–16) and the Aβ (12–28) region (Fig. 1). Since the binding sites of AChE and HN on Aβ are overlapping, we previously investigated whether HN and AChE can simultaneously bind Aβ [79].
# [2] = test system: Aβ40; conditions: HN and AChE compared; cited from earlier work
# Source text: Amino acid residues involved in direct interactions between HN and Aβ40 were identified previously by molecular modeling. The specific epitopes at the binding interface between HN and Aβ40 were identified, by proteolytic epitope excision and extraction in addition to affinity–mass spectrometric data analysis, to be HN (5–15) and Aβ (17–28). […] Inhibiting the 17–28 region of Aβ reduced aggregation of the neurotoxic amyloid fibrils and related cytotoxicity in SH‐SY5Y, a human neuroblastoma cell ... || Humanin has been previously reported to bind amino acid residues 17–28 of Aβ (Fig. 1). AChE is also known to bind Aβ (1–16) and the Aβ (12–28) region (Fig. 1). Since the binding sites of AChE and HN on Aβ are overlapping, we previously investigated whether HN and AChE can simultaneously bind Aβ [79].
# [3] = test system: Aβ in H1299 cell-conditioned media; assay: ELISA, oligomer versus total Aβ in H1299 cell-conditioned media; type: cell-based, human; conditions: AChE-immunodepleted H1299 media; Fig. 8B
# Protocol: Aβ ELISAs were carried out according to previous protocols for determining the oligomeric and monomeric concentrations of Aβ and as we recently reported. Briefly, total Aβ (monomers + oligomers) was measured by two‐site binding ELISAs using the capture 6E10 monoclonal antibody and 4G8‐conjugated biotin as the detection antibody, which recognizes a distinct epitope, then quantitated using streptavidin‐HRP.
# Using the same samples, oligomerized Aβ was measured by a single‐site ELISA in which antibodies targeting the same primary sequence epitope were used for both capture (4G8) and detection (4G8‐biotin). Only oligomers are detected with this approach since the 4G8‐biotin antibody cannot bind to the captured monomer because the epitope is blocked by the 4G8 capture antibody. […]
# Conditioned media were immunodepleted (ID) according to the methods previously described and our recently published report. […] The ID media were then carefully removed and analyzed for the presence of the target protein or peptide by ELISA. The same amount of protein (3 µL of 600 µg·mL^−1 total protein) of each sample was analyzed in the experiments. […]
# Both epitopes recognized by the 6E10 and 4G8 antibodies have been previously shown to be exposed in Aβ aggregates. […] Fold change relative to controls using anti‐6E10 or anti‐4G8 antibodies incubated with 300 μL of the medium not incubated with cells was calculated. […]
# [4] = test system: Aβ40; conditions: decreased lag phase; cited from earlier work
# Source text: Almost all types of cells produce amyloid beta (Aβ), a peptide well recognized for its role in the development and progression of different stages of Alzheimer's disease (AD). The Aβ peptide is ~ 4 kDa and derived from the sequential processing of the higher molecular weight amyloid precursor protein by two membrane‐bound endoproteases, β‐ and γ‐secretase. Different C‐terminal Aβ heterogeneity results from processing by γ‐secretase, where Aβ40 represents the most abundant isoform (~ 90%) as compared to Aβ42 (~ 10%). Self‐assembled Aβ40/42 peptides into amyloid fib ... || Humanin (HN) is a secreted 21‐ to 24‐amino acid mitochondrial‐derived peptide. Certain amino acid residues in HN have been identified to be involved in different functions, including binding to Aβ [55, 56]. […] HN was identified previously as a binding partner of Aβ, likely modulating its aggregation pathways and counteracting its deleterious effects. […] The specific epitopes at the binding interface between HN and Aβ40 were identified, by proteolytic epitope excision and extraction in addition to affinity–mass spectrometric data analysis, to be HN (5–15) and Aβ (17–28). […] Inhibiting the 17–28 region of Aβ reduced aggregation of the neurotoxic amyloid fibrils and related cytotoxicity in SH‐SY5Y, a human neuroblastoma cell ... || (+ 1 further places)
molecule,measurement,setting,value
acetylcholinesterase (protein) EGREDAELLVTVRGGRLRGIRLKTPGGPVSAFLGIPFAEPPMGPRRFLPPEPKQPWSGVVDATTFQSVCYQYVDTLYPGFEGTEMWNPNRELSEDCLYLNVWTPYPRPTSPTPVLVWIYGGGFYSGASSLDVYDGRFLVQAERTVLVSMNYRVGAFGFLALPGSREAPGNVGLLDQRLALQWVQENVAAFGGDPTSVTLFGESAGAASVGMHLLSPPSRGLFHRAVLQSGAPNGPWATVGMGEARRRATQLAHLVGCPPGGTGGNDTELVACLRTRPAQVLVNHEWHVLPQESVFRFSFVPVVDGDFLSDTPEALINAGDFHGLQVLVGVVKDEGSYFLVYGAPGFSKDNESLISRAEFLAGVRVGVPQVSDLAAEAVVLHYTDWLHPEDPARLREALSDVVGDHNVVCPVAQLAGRLAAQGARVYAYVFEHRASTLSWPLWMGVPHGYEIEFIFGIPLDPSRNYTAEEKIFAQRLMRYWANFARTGDPNEPRDPKAPQWPPYTAGAQQYVSLDLRPLEVRRGLRAQACAFWNRFLPKLLSATDTLDEAERQWKAEFHRWSSYMVHWKNQFDHYSKQDRCSDL,affinity for Aβ42,[1],comparable affinities
same,affinity for Aβ40,[2],comparable affinities
same,effect of AChE ID on oligomer versus total Aβ,[3],No change
same,effect on Aβ40 aggregation,[4],significantly accelerated the aggregation
